{"source": "patent US20090055975A1", "molecules": {"B1": {"name": "phage PhD3.1 displaying peptide GBP3.1 (peptide, not shown: large carriers)", "peptide": "ATCSKKYPRSPCMA"}}, "target": "receptor on the pea aphid (Acyrthosiphon pisum) gut epithelium", "assay": "cell-based or functional assay", "data": [{"molecule": "control phage PhDC6 displaying control peptide C6", "values": [{"measurement": "Detection of PEMV RNA in the aphid hemocoel, 1-10 min (No. of positive/No. of tested) (positive samples of 4 tested)", "value": 0}, {"measurement": "Detection of PEMV RNA in the aphid hemocoel, 11-20 min (No. of positive/No. of tested) (positive samples of 4 tested)", "value": 0}, {"measurement": "Detection of PEMV RNA in the aphid hemocoel, 21-30 min (No. of positive/No. of tested) (positive samples of 4 tested)", "value": 2}, {"measurement": "time of feeding on virus-infected plants until viral RNA is detected in hemolymph", "value": 30, "unit": "min"}]}, {"molecule": "B1", "values": [{"measurement": "Detection of PEMV RNA in the aphid hemocoel, 1-10 min (No. of positive/No. of tested) (positive samples of 6 tested)", "value": 0}, {"measurement": "Detection of PEMV RNA in the aphid hemocoel, 11-20 min (No. of positive/No. of tested) (positive samples of 6 tested)", "value": 0}, {"measurement": "Detection of PEMV RNA in the aphid hemocoel, 21-30 min (No. of positive/No. of tested) (positive samples of 6 tested)", "value": 0}, {"measurement": "Detection of PEMV RNA in the aphid hemocoel, 31-40 min (No. of positive/No. of tested) (positive samples of 6 tested)", "value": 0}, {"measurement": "Detection of PEMV RNA in the aphid hemocoel, 41-50 min (No. of positive/No. of tested) (positive samples of 6 tested)", "value": 0}, {"measurement": "Detection of PEMV RNA in the aphid hemocoel, 51-60 min (No. of positive/No. of tested) (positive samples of 6 tested)", "value": 1}, {"measurement": "Detection of PEMV RNA in the aphid hemocoel, 61-75 min (No. of positive/No. of tested) (positive samples of 2 tested)", "value": 0}, {"measurement": "Detection of PEMV RNA in the aphid hemocoel, 76-90 min (No. of positive/No. of tested) (positive samples of 2 tested)", "value": 0}, {"measurement": "time of feeding on virus-infected plants until viral RNA is detected in hemolymph", "value": 60, "unit": "min"}]}]}
